Publication PMC7367873, “Dissecting the sequence determinants for dephosphorylation by the catalytic subunits of phosphatases PP1 and PP2A” (Nature Communications, 2020)

B1: UBAP2L (protein, UniProt Q14157 1-1087, looked up)
Ubiquitin-associated protein …: MMTSVGTNRARGNWEQPQNQNQTQHKQRPQATAEQIRLAQMISDHNDADFEEKVKQLIDITGKNQDECVIALHDCNGDVNRAINVLLEGNPDTHSWEMVGKKKGVSGQKDGGQTESNEEGKENRDRDRDYSRRRGGPPRRGRGASRGREFRGQENGLDGTKSGGPSGRGTERGRRGRGRGRGGSGRRGGRFSAQGMGTFNPADYAEPANTDDNYGNSSGNTWNNTGHFEPDDGTSAWRTATEEWGTEDWNEDLSETKIFTASNVSSVPLPAENVTITAGQRIDLAVLLGKTPSTMENDSSNLDPSQAPSLAQPLVFSNSKQTAISQPASGNTFSHHSMVSMLGKGFGDVGEAKGGSTTGSQFLEQFKTAQALAQLAAQHSQSGSTTTSSWDMGSTTQSPSLVQYDLKNPSDSAVHSPFTKRQAFTPSSTMMEVFLQEKSPAVATSTAAPPPPSSPLPSKSTSAPQMSPGSSDNQSSSPQPAQQKLKQQKKKASLTSKIPALAVEMPGSADISGLNLQFGALQFGSEPVLSDYESTPTTSASSSQAPSSLYTSTASESSSTISSNQSQESGYQSGPIQSTTYTSQNNAQGPLYEQRSTQTRRYPSSISSSPQKDLTQAKNGFSSVQATQLQTTQSVEGATGSAVKSDSPSTSSIPPLNETVSAASLLTTTNQHSSSLGGLSHSEEIPNTTTTQHSSTLSTQQNTLSSSTSSGRTSTSTLLHTSVESEANLHSSSSTFSTTSSTVSAPPPVVSVSSSLNSGSSLGLSLGSNSTVTASTRSSVATTSGKAPPNLPPGVPPLLPNPYIMAPGLLHAYPPQVYGYDDLQMLQTRFPLDYYSIPFPTPTTPLTGRDGSLASNPYSGDLTKFGRGDASSPAPATTLAQPQQNQTQTHHTTQQTFLNPALPPGYSYTSLPYYTGVPGLPSTFQYGPAVFPVAPTSSKQHGVNVSVNASATPFQQPSGYGSHGYNTGVSVTSSNTGVPDISGSVYSKTQQSFEKQGFHSGTPAASFNLPSALGSGGPINPATAAAYPPAPFMHILTPHQQPHSQILHHHLQQDGQTGSGQRSQTSSIPQKPQTNKSAYNSYSWGAN
B2: ATXN2L (protein, UniProt Q8WWM7 1-1075, looked up)
Ataxin-2-like protein: MLKPQPLQQPSQPQQPPPTQQAVARRPPGGTSPPNGGLPGPLATSAAPPGPPAAASPCLGPVAAAGSGLRRGAEGILAPQPPPPQQHQERPGAAAIGSARGQSTGKGPPQSPVFEGVYNNSRMLHFLTAVVGSTCDVKVKNGTTYEGIFKTLSSKFELAVDAVHRKASEPAGGPRREDIVDTMVFKPSDVMLVHFRNVDFNYATKDKFTDSAIAMNSKVNGEHKEKVLQRWEGGDSNSDDYDLESDMSNGWDPNEMFKFNEENYGVKTTYDSSLSSYTVPLEKDNSEEFRQRELRAAQLAREIESSPQYRLRIAMENDDGRTEEEKHSAVQRQGSGRESPSLASREGKYIPLPQRVREGPRGGVRCSSSRGGRPGLSSLPPRGPHHLDNSSPGPGSEARGINGGPSRMSPKAQRPLRGAKTLSSPSNRPSGETSVPPPPAVGRMYPPRSPKSAAPAPISASCPEPPIGSAVPTSSASIPVTSSVSDPGVGSISPASPKISLAPTDVKELSTKEPGRTLEPQELARIAGKVPGLQNEQKRFQLEELRKFGAQFKLQPSSSPENSLDPFPPRILKEEPKGKEKEVDGLLTSEPMGSPVSSKTESVSDKEDKPPLAPSGGTEGPEQPPPPCPSQTGSPPVGLIKGEDKDEGPVAEQVKKSTLNPNAKEFNPTKPLLSVNKSTSTPTSPGPRTHSTPSIPVLTAGQSGLYSPQYISYIPQIHMGPAVQAPQMYPYPVSNSVPGQQGKYRGAKGSLPPQRSDQHQPASAPPMMQAAAAAGPPLVAATPYSSYIPYNPQQFPGQPAMMQPMAHYPSQPVFAPMLQSNPRMLTSGSHPQAIVSSSTPQYPSAEQPTPQALYATVHQSYPHHATQLHAHQPQPATTPTGSQPQSQHAAPSPVQHQAGQAPHLGSGQPQQNLYHPGALTGTPPSLPPGPSAQSPQSSFPQPAAVYAIHHQQLPHGFTNMAHVTQAHVQTGITAAPPPHPGAPHPPQVMLLHPPQSHGGPPQGAVPQSGVPALSASTPSPYPYIGHPQGEQPGQAPGFPGGADDRIREFSLAGGIWHGRAEGLQVGQDARVLGGE
B3: ASPH (protein, UniProt Q12797 1-758, looked up)
Aspartyl/asparaginyl …: MAQRKNAKSSGNSSSSGSGSGSTSAGSSSPGARRETKHGGHKNGRKGGLSGTSFFTWFMVIALLGVWTSVAVVWFDLVDYEEVLGKLGIYDADGDGDFDVDDAKVLLGLKERSTSEPAVPPEEAEPHTEPEEQVPVEAEPQNIEDEAKEQIQSLLHEMVHAEHVEGEDLQQEDGPTGEPQQEDDEFLMATDVDDRFETLEPEVSHEETEHSYHVEETVSQDCNQDMEEMMSEQENPDSSEPVVEDERLHHDTDDVTYQVYEEQAVYEPLENEGIEITEVTAPPEDNPVEDSQVIVEEVSIFPVEEQQEVPPETNRKTDDPEQKAKVKKKKPKLLNKFDKTIKAELDAAEKLRKRGKIEEAVNAFKELVRKYPQSPRARYGKAQCEDDLAEKRRSNEVLRGAIETYQEVASLPDVPADLLKLSLKRRSDRQQFLGHMRGSLLTLQRLVQLFPNDTSLKNDLGVGYLLIGDNDNAKKVYEEVLSVTPNDGFAKVHYGFILKAQNKIAESIPYLKEGIESGDPGTDDGRFYFHLGDAMQRVGNKEAYKWYELGHKRGHFASVWQRSLYNVNGLKAQPWWTPKETGYTELVKSLERNWKLIRDEGLAVMDKAKGLFLPEDENLREKGDWSQFTLWQQGRRNENACKGAPKTCTLLEKFPETTGCRRGQIKYSIMHPGTHVWPHTGPTNCRLRMHLGLVIPKEGCKIRCANETKTWEEGKVLIFDDSFEHEVWQDASSFRLIFIVDVWHPELTPQQRRSLPAI
B4: MISP (protein, UniProt Q8IVT2 1-679, looked up)
Mitotic interactor and …: MDRVTRYPILGIPQAHRGTGLVLDGDTSYTYHLVCMGPEASGWGQDEPQTWPTDHRAQQGVQRQGVSYSVHAYTGQPSPRGLHSENREDEGWQVYRLGARDAHQGRPTWALRPEDGEDKEMKTYRLDAGDADPRRLCDLERERWAVIQGQAVRKSSTVATLQGTPDHGDPRTPGPPRSTPLEENVVDREQIDFLAARQQFLSLEQANKGAPHSSPARGTPAGTTPGASQAPKAFNKPHLANGHVVPIKPQVKGVVREENKVRAVPTWASVQVVDDPGSLASVESPGTPKETPIEREIRLAQEREADLREQRGLRQATDHQELVEIPTRPLLTKLSLITAPRRERGRPSLYVQRDIVQETQREEDHRREGLHVGRASTPDWVSEGPQPGLRRALSSDSILSPAPDARAADPAPEVRKVNRIPPDAYQPYLSPGTPQLEFSAFGAFGKPSSLSTAEAKAATSPKATMSPRHLSESSGKPLSTKQEASKPPRGCPQANRGVVRWEYFRLRPLRFRAPDEPQQAQVPHVWGWEVAGAPALRLQKSQSSDLLERERESVLRREQEVAEERRNALFPEVFSPTPDENSDQNSRSSSQASGITGSYSVSESPFFSPIHLHSNVAWTVEDPVDSAPPGQRKKEQWYAGINPSDGINSEVLEAIRVTRHKNAMAERWESRIYASEEDD
B5: C4BPA (protein, UniProt P04003 49-597, looked up)
C4b-binding protein alpha …: NCGPPPTLSFAAPMDITLTETRFKTGTTLKYTCLPGYVRSHSTQTLTCNSDGEWVYNTFCIYKRCRHPGELRNGQVEIKTDLSFGSQIEFSCSEGFFLIGSTTSRCEVQDRGVGWSHPLPQCEIVKCKPPPDIRNGRHSGEENFYAYGFSVTYSCDPRFSLLGHASISCTVENETIGVWRPSPPTCEKITCRKPDVSHGEMVSGFGPIYNYKDTIVFKCQKGFVLRGSSVIHCDADSKWNPSPPACEPNSCINLPDIPHASWETYPRPTKEDVYVVGTVLRYRCHPGYKPTTDEPTTVICQKNLRWTPYQGCEALCCPEPKLNNGEITQHRKSRPANHCVYFYGDEISFSCHETSRFSAICQGDGTWSPRTPSCGDICNFPPKIAHGHYKQSSSYSFFKEEIIYECDKGYILVGQAKLSCSYSHWSAPAPQCKALCRKPELVNGRLSVDKDQYVEPENVTIQCDSGYGVVGPQSITCSGNRTWYPEVPKCEWETPEGCEQVLTGKRLMQCLPNPEDVKMALEVYKLSLEIEQLELQRDSARQSTLDKEL
B6: HNRNPF (protein, UniProt P52597 1-415, looked up)
Heterogeneous nuclear …: MMLGPEGGEGFVVKLRGLPWSCSVEDVQNFLSDCTIHDGAAGVHFIYTREGRQSGEAFVELGSEDDVKMALKKDRESMGHRYIEVFKSHRTEMDWVLKHSGPNSADSANDGFVRLRGLPFGCTKEEIVQFFSGLEIVPNGITLPVDPEGKITGEAFVQFASQELAEKALGKHKERIGHRYIEVFKSSQEEVRSYSDPPLKFMSVQRPGPYDRPGTARRYIGIVKQAGLERMRPGAYSTGYGGYEEYSGLSDGYGFTTDLFGRDLSYCLSGMYDHRYGDSEFTVQSTTGHCVHMRGLPYKATENDIYNFFSPLNPVRVHIEIGPDGRVTGEADVEFATHEEAVAAMSKDRANMQHRYIELFLNSTTGASNGAYSSQVMQGMGVSAAQATYSGLESQSVSGCYGAGYSGQNSMGGYD

The molecules below were run on GFP-14-3-3β (assay: GFP-14-3-3β co-IP with LC-MS/MS, untreated GFP-14-3-3β versus GFP control (14-3-3 interactome)). Conditions: untreated vs GFP; LFQ intensities; 3 replicates each.
Assay type: binding, human

| Molecule | Difference (log2), untreated vs GFP |
| --- | --- |
| B1 | -0.6949 log2 |

Same assay, conditions: untreated vs GFP; label-free quantification

| Molecule | Difference (log2), untreated vs GFP |
| --- | --- |
| B2 | 0.1548 log2 |
| B3 | 0.9544 log2 |
| B4 | -0.2245 log2 |
| B5 | -1.682 log2 |
| B6 | -0.6522 log2 |

Each molecule was assayed on GFP-14-3-3β and its binding proteins (assay: GFP-14-3-3β co-IP with LC-MS/MS label-free quantification, untreated versus PP1c-treated). Conditions: PP1 vs untreated; LFQ intensities; 3 replicates each.
Parameters: species or system human

| Difference (log2), PP1 vs untreated | Molecule |
| --- | --- |
| 0.7375 log2 | B1 |

Same assay, conditions: PP1 vs untreated; label-free quantification

| Difference (log2), PP1 vs untreated | Molecule |
| --- | --- |
| 0.7492 log2 | B2 |
| 0.7413 log2 | B3 |
| 0.7397 log2 | B4 |
| 0.7487 log2 | B5 |
| 0.766 log2 | B6 |
